Data on 31 sequences can be found in the supplement of paper PMC9170038.

This data set deals with MS2 coat protein. Kind of data set: apparent KD of MS2 coat protein; designed switch direction (-1 OFF switch, 1 ON switch): -1; higher = weaker reporter binding. In outline: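 On Illumina chips, designed RNA switches with common flanks were made by stalled E. coli RNA polymerase. Titrations with SNAP-549-labelled MS2 coat protein, doubling from 0.7 or 1.5 nM to 3 µM, were done with no input, with 200 uM small-molecule ligand, or with an oligonucleotide input. Apparent KD is the median per design over clusters, from curve fits of normalised cluster fluorescence.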

Setting [1] is: input ligand: microRNA oligo, concentration not stated.
[2] abbreviates: Eterna round: R95, input ligand: microRNA oligo, concentration not stated.
[3] abbreviates: Eterna round: R95, input ligand: FMN 200 uM.
The mark [4] stands for this setting: Eterna round: R95, input ligand: none.

As for “UAUUAGCAAGCGAGAUCCCACAUGAGGAUCACCCAUGUGCUCGUCUUAUAAGGUACUGUGACGAGAGUCACGGUACC [Mat - Sensor, turn-off var - Eli Mod - D17] (Eterna round: R97, puzzle: Sensor, turn-off variant 1)”, the “apparent KD of MS2 coat protein” value (input ligand: FMN 200 uM) came out at 0.0164 µM and the “apparent KD of MS2 coat protein” value (input ligand: none) was found to be 0.0139 µM. In the same order, the values of “UAUUAGCAAGCGAGGUCCCACAUGAGGAUCACCCAUGUGCUCGUCUUAUAAGGUACUGUGACGAUAGUCACGGUACC [Mat - Sensor, turn-off var - Eli Mod - D33] (Eterna round: R97, puzzle: Sensor, turn-off variant 1)” are 0.0146 µM and 0.0146 µM. With “UAUUAGCAAGUAAGAUCCCACAUGAGGAUCACCCAUGUGCUCGUCUUAUAAGGUACUGUGACGAGAGUCACGGUACC [Mat - Sensor, turn-off var - Eli Mod - D45] (Eterna round: R97, puzzle: Sensor, turn-off variant 1)”, the “apparent KD of MS2 coat protein” value amounted to 0.0164 µM (input ligand: FMN 200 uM) and 0.0191 µM (input ligand: none).

For the sequence “UAUUAGCGAGGAUAUACAUGAGGAUCACCCAUGUGAUCCUAAGGCUGAUAAAGCCUAUGUAGAAGGCGCAAAAG [jl-ex3.4.51 ViennaUCT mod] (Eterna round: R97, puzzle: Exclusion 3)”, the “apparent KD of MS2 coat protein” value is, setting by setting: (input ligand: FMN 200 uM) 0.227 µM; (input ligand: none) 0.421 µM.

Turning to “UAUUAGUAAGGAUAUCCCACGUAGGACGAAAGUCCUACGUGGGAGAAGGUACAUGAGGAUCACCCAUGUCUAUU [Mod of Fisker 12 - Jieux - Exclusion 4] (Eterna round: R97, puzzle: Exclusion 4)”, the “apparent KD of MS2 coat protein” value came out at 0.0204 µM (input ligand: FMN 200 uM) and 0.0187 µM (input ligand: none).

Take “UAUUAGUAAGGAUAUGAGACGUAGGACUAAUGUCCUACGUCUCAGAAGGUACAUGAGGAUCACCCAUGUUUAUU [Mod of Fisker 8 - Jieux - Exclusion 4] (Eterna round: R97, puzzle: Exclusion 4)”: the “apparent KD of MS2 coat protein” value worked out at 0.0235 µM (input ligand: FMN 200 uM) and 0.0193 µM (input ligand: none). In the same order, the values of “UAUUAGUAAGGAUAUGAGUCGUAGAACGAAAGUACUACGUCUCAGAAGGUACAUGAGGAUCACCCAUGUUCAUU [Mod of Fisker 3 - Jieux - Exclusion 4] (Eterna round: R97, puzzle: Exclusion 4)” are 0.0218 µM and 0.0135 µM.

Consider “UAUUAUAAUGUAGGAUAUCUGCACGAUUAGUGCAGAGAAGGACAUGAGGAUCACCCAUGUAUAGUAGCUUCGGCUACAUUAUUU [ENG1-B1] (Eterna round: R96, puzzle: Exclusion NG 1)”, for which the “apparent KD of MS2 coat protein” value was found to be 0.114 µM (input ligand: FMN 200 uM), 0.0607 µM under setting [1] and 0.0775 µM (input ligand: none). “UAUUAUGCAAGCAGGUCCCACAUGAGGAUCACCCAUGUGCUCGUCUUAUAAGGUACUGUGACGAAAGUCACGGUACC [Elimod 15 - Jieux - Sensor, turn-off variant 1] (Eterna round: R97, puzzle: Sensor, turn-off variant 1)”: the “apparent KD of MS2 coat protein” value was 0.0376 µM (input ligand: FMN 200 uM) and 0.0379 µM (input ligand: none). In the same order, the values of “UAUUCGCGAGGAUAUGCAGUCGAGUCCAUUACGUGUCUGGGACUUGAGGAUCACCCAAGUAGAAGGCGUCUCAG [salish99_ex2_r4_641] (Eterna round: R97, puzzle: Exclusion 2)” are 0.16 µM and 0.194 µM. In the case of “UAUUCUAGAUAGGAUAUACUUUAUUUUUUUUUCGUAGAAGGAUCUACAUGAGGAUCACCCAUGUUAACAGCAGU [JR_E6_Sub009] (puzzle: Exclusion 6)”, under setting [2], the “apparent KD of MS2 coat protein” value came to 0.0505 µM.

For “UAUUCUGCGCUCGUCUUAUACAUGAGGAUCACCCAUGUUCUCAAGGUCUUAUGUACUGACACGAAAGUGUUAGUAAU [AK-miRNA-r3-3] (Eterna round: R97, puzzle: Sensor, turn-off variant 1)”, the “apparent KD of MS2 coat protein” value by setting is: (input ligand: FMN 200 uM) 0.0363 µM; (input ligand: none) 0.0416 µM. In the same order, the values of “UAUUUAAGAGGAUAUACAUGAGGAUCACCCAUGUAAAAUAAAAUAGAUAAUUUUUUAUGUAGAAGGCUUGGGUA [-12.7, -11.42 kcal, A 39%] (Eterna round: R97, puzzle: Exclusion 3)” are 0.0385 µM and 0.04 µM. Consider “UAUUUGCAAGCGAGAUCCCACAUGAGGAUCACCCAUGUGCUCGUCUUAUAAGGUACUGUGACGAAAGUCACGGUACC [Sensor 3, v1 - 91 v26] (Eterna round: R97, puzzle: Sensor, turn-off variant 1)”, for which the “apparent KD of MS2 coat protein” value (input ligand: FMN 200 uM) came to 0.0165 µM and the “apparent KD of MS2 coat protein” value (input ligand: none) worked out at 0.0137 µM. The like results for “UAUUUGUAAGGAUAUCUCGUCAUGGAGGAAACUCCAUGACGAGAGAAGGUACAUGAGGAUCACCCAUGUCUAUU [Mod of Fisker 23 - Jieux - Exclusion 4] (Eterna round: R97, puzzle: Exclusion 4)” were, in that order, 0.0262 µM and 0.0186 µM. For “UAUUUGUGAGGAUAUGAGUCGUAGAACAAUAGUACUACGUCUCAGAAGGCACAUGAGGAUCACCCAUGUACCUC [Fiskers Ex 4 Super Stable 44 mod 30] (puzzle: Exclusion 4)”, under setting [2], the “apparent KD of MS2 coat protein” value is 0.0169 µM. For “UCAAGUAUGUAGGAUAUCGAUGUCGAAAGACAUCGAGAAGGACGUACAUGAGGAUCACCCAUGUAACUUGCAUG [Exclusion 6 - B - 10:f] (Eterna round: R96, puzzle: Exclusion 6)”, the “apparent KD of MS2 coat protein” value reads like this: (input ligand: FMN 200 uM) 0.159 µM; under setting [1], 0.112 µM; (input ligand: none) 0.22 µM. Consider “UCAAGUAUGUAGGAUAUCGAUGUCGAAAGACAUCGAGAAGGACGUACAUGAGGAUCACCCAUGUAACUUGCAUG [Exclusion 6 - B - 10:f] (puzzle: Exclusion 6)”, for which the “apparent KD of MS2 coat protein” value by setting is: under setting [3], 0.0322 µM; under setting [2], 0.0446 µM; under setting [4], 0.0423 µM. For the sequence “UCACGGGACUAAGGAUAUAUGUGUACCAUUUUCAUAGAAGGUAGAAUGUUUGAUCAUAAACUAAACAUGAGGAUCACCCAUGUU [JR_ExcNG1_Sub091] (Eterna round: R96, puzzle: Exclusion NG 1)”, under setting [1], the “apparent KD of MS2 coat protein” value came out at 0.0206 µM. “UCACGGGACUGAGGAUAUACAUUUAUUAUUUUUGUAGAAGGCAGAAUGUUAGUUUUUUCACUAUACAUGAGGAUCACCCAUGUU [JR_ExcNG1_Sub084] (Eterna round: R96, puzzle: Exclusion NG 1)”: the “apparent KD of MS2 coat protein” value under setting [1] worked out at 0.0206 µM. For the sequence “UCAGAGCGAGGAUAUGCUGGUGUUAUUCACAUUUGUCCGCGACAUGAGGAUCACCCAUGUAGAAGGCGUAGCCA [Eternabot (L2) Solution 44] (Eterna round: R97, puzzle: Exclusion 2)”, the “apparent KD of MS2 coat protein” value is, setting by setting: (input ligand: FMN 200 uM) 0.104 µM; (input ligand: none) 0.0769 µM. For “UCAGUGCUGCGAGGAUAUACAUGAGGAUCACCCAUGUAAAUGUGUGAGGCUUUGCCUCACACAAUGUAGAAGGCGCAGUACUGU [Mat - Exclusion NG 2 - Mod of JL - D3] (Eterna round: R96, puzzle: Exclusion NG 2)”, the “apparent KD of MS2 coat protein” value came out at 0.0172 µM (input ligand: FMN 200 uM), 0.0111 µM under setting [1] and 0.0143 µM (input ligand: none). Regarding “UCAUGAUGAUAGGAUAUCGCGCGGUGAAAUGCGCGAGAAGGAUUAACAUGAGGAUCACCCAUGUUGGUCUGUUA [Eternabot (L2) Solution 69] (Eterna round: R97, puzzle: Exclusion 6)”, the “apparent KD of MS2 coat protein” value was determined as 0.0279 µM (input ligand: FMN 200 uM) and 0.0153 µM (input ligand: none).

Turning to “UCAUGGUAGCAGGAUAUGCUUGUAAUUUUUUAUGCAGAAGGGCUUACAUGAGGAUCACCCAUGUGUUAGGUCUA [JR_E6_Sub069] (puzzle: Exclusion 6)”, the “apparent KD of MS2 coat protein” value under setting [2] was found to be 0.0452 µM. On to “UCAUGUCCAGAGGAUAUGUAGCGGGAGACCGCAACAGAAGGCUGGACAUGAGGAUCACCCAUGUGCGCCUUCCA [jl-ex3-4.26 ViennaUCT mod] (Eterna round: R97, puzzle: Exclusion 6)”, for which the “apparent KD of MS2 coat protein” value runs as follows: (input ligand: FMN 200 uM) 0.0218 µM; (input ligand: none) 0.017 µM.

As for “UCAUGUUUAGAGGAUAUGAUUACUCUAGAGUGAUCAGAAGGCUAGACAUGAGGAUCACCCAUGUCAGAACAUGC [Exclusion 6 - B - 17:b] (puzzle: Exclusion 6)”, the “apparent KD of MS2 coat protein” value was determined as 0.0177 µM under setting [3], 0.0247 µM under setting [2] and 0.0319 µM under setting [4].

As to “UCAUGUUUAGAGGAUAUGAUUACUUUCGAGUAAUCAGAAGGCUAGACAUGAGGAUCACCCAUGUCAUAACAUGA [Exclusion 6 - B - 15:b] (puzzle: Exclusion 6)”, the “apparent KD of MS2 coat protein” value runs as follows: under setting [3], 0.0687 µM; under setting [2], 0.0718 µM; under setting [4], 0.214 µM.

For the sequence “UCAUUGGUAGGAUAUACAUGAGGAUCACCCAUGUGUCCGGAGCAGUAUGCUUGAAAACGUAGAAGGACCUAGGA [Eternabot (L1) Solution 15] (Eterna round: R97, puzzle: Exclusion 3)”, the “apparent KD of MS2 coat protein” value by setting is: (input ligand: FMN 200 uM) 0.0453 µM; (input ligand: none) 0.0404 µM. “UCCAAACAUGAGGAUCACCCAUGUGAGGAUAUGAUACUAUGUACUUCGGUACAUAGUAUCAGAAGGCACAUCCA [Ex1-3: 10] (puzzle: Exclusion 1)”: the “apparent KD of MS2 coat protein” value under setting [2] was determined as 0.0134 µM. As to “UCCAACCCUGUGAGGAUAUCGUCCAUUUUUUGUUCCGAGAAGGCACAUGAGGAUCACCCAUGUUUUUUAUUUUU [JR_BMOE4_Sub078] (puzzle: Brourd's mod of Exclusion 4)”, the “apparent KD of MS2 coat protein” value under setting [2] worked out at 0.0349 µM. For “UCCCAGUGAGGAUAUACUUAUCGGGUCGGUUAGCGAGGAAAACUUGAGGAUCACCCAAGUAGAAGGCGCAACGU [Isinar] (Eterna round: R97, puzzle: Exclusion 2)”, the “apparent KD of MS2 coat protein” value (input ligand: FMN 200 uM) is 0.0351 µM and the “apparent KD of MS2 coat protein” value (input ligand: none) was found to be 0.0296 µM.
